Experimental data from PMC3810769 (Molecular Biology of the Cell, 2013).
Where two headings read alike, the source gives them in different places.

How the values were obtained:
[1] = target: T1, nebulette SH3 domain fused to glutathione S-transferase (human (by the printed UniProt entry …, UniProt O76041 954-1014)); experiment: peptide or protein array
T1 sequence (looked up): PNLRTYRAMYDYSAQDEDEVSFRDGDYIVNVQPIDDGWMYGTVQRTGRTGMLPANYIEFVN

nebulin SH3 domain [2] = target: T2, nebulin SH3 domain (UniProt P20929 8466-8525); experiment: ITC
T2 sequence (looked up): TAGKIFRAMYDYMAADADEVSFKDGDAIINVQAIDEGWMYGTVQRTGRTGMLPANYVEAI

nebulin SH3 domain [3] = target: T2, nebulin SH3 domain; experiment: ITC; remark: listed apart in the source
[4] = target: T3, nebulette SH3 domain (residues 955-1014) (human (by the printed UniProt entry …, UniProt O76041 955-1014)); experiment: ITC
T3 sequence (looked up): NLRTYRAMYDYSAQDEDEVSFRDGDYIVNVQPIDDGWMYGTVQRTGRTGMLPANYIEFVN

Question: Does GVLPPPTLPKPK [XIRP2 PR6 peptide GVLPPPTLPKPK] bind [1]?
Answer: binds

Question: With PPPTLPKPKLPKH [synthetic 13-mer XIRP2 peptide PPPTLPKPKLPKH] as the binder, how does the Kd (nebulin SH3 domain [2]) read?
Answer: 9.3 µM

Question: And the Kd (nebulin SH3 domain [3])?
Answer: 9.61 µM

Question: What about the dH (nebulin SH3 domain [3]) of the same binder?
Answer: -9.43 kcal/mol

Question: What about the “stoichiometry N” value (nebulin SH3 domain [3]) of the same binder?
Answer: 1.02

Question: And the Kd [4]?
Answer: 12.9 µM

Question: What about the dH [4] of the same binder?
Answer: -8.46 kcal/mol

Question: What about the “stoichiometry N” value [4] of the same binder?
Answer: 1.12
